According to the DeepSol protein solubility set:

Test: soluble on expression in E. coli; label from the status in PepcDB or PDB records

Row | Sequence | soluble on expression in E. coli
1 | GPGSMMRCGNGSGPAAPSAASPRSHEGCLPHWMECSSASSSFVEDRVRCLVHPVGVTSLLPAPLQRILANVLRILQQERAQLKGQRPCRRHSRSLGTGVDAEVTECIVDAAQAPSLAAAADIFSAFVAAHPMDGLALLSSPVALVGAALAEVVTLGQVESCVIPMPELLSFLDAAISVGHPGAMHSVAICLREGTAGLQRDVTSSETWLRCAASSGYLPAMHELGETYERGAPASSKLPAGAAEDAADWGEAMQWYRRAAEAGYPPSQLNLGKLLLAASEHAQSAGSAAAPQVAHLFTEAKRWLHACAATGVEEAVRLVKRIEEQGAR | soluble
2 | MVSKAINSAMNQVDGIVVVGSPGRNLEIEDEKVTFIQSQISDVGKRYFIGLEKIDADYYFLLDYDDIFLSNKVNALKRVFENGKGGAAKESEYYNPSLNYISNVIRNRIDWHISEYSFDADFKKYLLKFVEKYSIPTHVSFDKILFAIMLNYGNMHVVNSKLTEIVSHGDSRMHAKRKRKFYSETYKVFEKFKSIPDLNQSCRQYVEYTYDLNRYLSEPTRENYEHLLASGKYPIPLYKRLYYKYYSIMKPE | not soluble
3 | PQSAVLHYSGSYGIPATMTFERSGNAYKIVSTIKVPLYNIRFESGGTVVGNTLHPTYYRDIRRGKLYAEAKFADGSVTYGKAGESKTEQSPKAMDLFTLAWQLAANDAKLPPGLKITNGKKLYSVGGLNKAGTGKYSIGGVETEVVKYRVRRGDDAV | not soluble
4 | KRFGWTNELMFLFAPIPWSRLPYHSIGYRASGRSYARKEHKPFRYNGFSPGIGINSCLWWKVSVRDEYIFRIGLNVGYEYMDQLYAYRHFKVNEEKPLSSLSQRLKHIGHIGLNFALSLN | not soluble
5 | WILASTTEGAPSVAPLNVTVFLNESSDNVDIRWMKPPTKQQDGELVGYRISHVWQSAGISKELLEEVGQNGSRARISVQVHNATCTVRIAAVTRGGVGPFSDPVKIFIPAH | soluble
6 | MNNNEIYVSLDIGTSNVRIIIGEITDGSINIIGVGNAPSEGIKKGSIVDIDETVRSIRRAVEQAERMVGLSIRQVIVGVNGNHVQLQPCHGVVAVSSPDREIGDEDIARVIDAAQVVSIPPEREIIDVIPKQFIVDGLDEINDPRGMIGVRLEMEGTIITGSKTLLHNLLRCVERAGLEVADICLQALAAGSVAISKDEKSLGVCLIDIGGGSMTISCFEQGSLVDTSVIPVGGDHVTNDIAVGLRISTEEAIKIKHTHGHAYIDEASEEDRFEVKAIGSTEPEAFSQFELAHIIEPRMEEMFELINRELRRLGQHDFPGGFVLTGGSVMMPGVLELAKETLGRNVRVAIPDYIGVREPQYTTGVGLIQFAYKNVKIQGKEVAAAVAEAGVEQEQRPKKEKERSRTNEGPGVKSKVKNWFKVFLE | not soluble
7 | MAHHHHHHMDCNTGMQLGQQFSKDVTMMHGGVPMSGAMSEQDALMVSAQVGGASPMMAAQWAQNFQQQQAMQAMRQQHEMEQAFQNSQQQQHAAVAQSGQMLGMAGPQQQQFMVQQQQQASMMNAAMMSQGMMTANMGFGMMMPRTQYQPLPNLSVLQPNQQQQQQQQLVNLAPAVQDSAWADQLSQQQWSTDYSQVQTFSAPGMEDKTVEERIKDSEFYKFMDQVKNKEVLIDEEKGELVQGPGPEVGVPEDAEYLRHWAEMEGLNMPEGVFQPPPPASAMMTPENGDPDTYIKEMDMAENDVEDWAQEYAEMQERLQKVTNNTDYPFEPNNPYMFHDFPFDEGMEMLQLGNLAEAALAFEAVCHKDSSNEKAWQILGTTQAENEKDGLAIIALNNARKLNIRNLEVHAALSVSHTNERNADAAMDSLKAWLVNHPEYEQLASVSIPPDAELDVQETFFFADPSRMREARTLYEAAIEMNPSDSQLFTNLGVLHNVAHEFDEAAECFRKAVALHPDDPKMWNKLGATLANGGHPDQALEAYNRALDINPGYVRAMYNMAVAYSNMSQYNMAARQIVKAIASQQGGTKPSGEGSIMATRNMWDLLRMTLNLMDRDDLVQLTYNEQLEPFVKEFGLEGHV | not soluble
8 | MSLEDKDLRSIQEVRNLIESANKAQKELAAMSQQQIDTIVKAIADAGYGAREKLAKMAHEETGFGIWQDKVIKNVFASKHVYNYIKDMKTIGMLKEDNEKKVMEVAVPLGVVAGLIPSTNPTSTVIYKTLISIKAGNSIVFSPHPNALKAILETVRIISEAAEKAGCPKGAISCMTVPTIQGTDQLMKHKDTAVILATGGSAMVKAAYSSGTPAIGVGPGNGPAFIERSANIPRAVKHILDSKTFDNGTICASEQSVVVERVNKEAVIAEFRKQGAHFLSDAEAVQLGKFILRPNGSMNPAIVGKSVQHIANLAGLTVPADARVLIAEETKVGAKIPYSREKLAPILAFYTAETWQEACELSMDILYHEGAGHTLIIHSEDKEIIREFALKKPVSRLLVNTPGALGGIGATTNLVPALTLGCGAVGGSSSSDNIGPENLFNIRRIATGVLELEDIRKEENQATSELPVDADALIQSLVEKVLAELKEGHHHHHH | soluble
9 | GPGSMKKTVEDRSLEFLIRRRNDAELPPLASLSCKHLKQHHWRDAFDDEQAALREQLWAVKTQLDVIPAETYTATRNKLFPLAASGEQRNFSNRAGHKLLESMESTGVWMELSKLLRGKSTKRPRDFAFADVCGGPGAFSQALFQAGRKRGWRHLHGYGMTLAGVSGLDWYAHLLKSPQFTCTYGLDGTGDIFKLSNIDCLASITKAAPMFLVVADGGFNVDFSVTNYQETISSRIMYGQWLAALKLLRKGGCFVLKLFDTFSPLSRAVLYLSCCMYRRVHVAKPRHSRVVNSERYLVCVDFLGYPSEGWSRYLDSFYEVGFVDNEHVPQLIPREWCLQDAVFMADVRDMNTAVATNQVIALQMILDAAPAMTEELKAKTIEKKPAAGSDDGRTPPPDEGGDGE | not soluble
10 | MKNTFLYFRWEDLHGEIGVDSFNLLRASYSNLSEQQLVELIKELISIEREDIAAKFDIHLSENAPVFDERQHVVYKGVAGDMNYKDMLLSLVTALDLTNTLDHVQNILSLAKCLRSFDREIFARFAKDIAEEVYYSLKLEHHHHHH | soluble
11 | MAFIHTSLTRLMRFAVDQTKDIIEPLMVTKVLTEFSESENDGLSHYAHYAKFHNYLVPNMAKLAEYSIEERVRVIFGFAAVVSDDFLKQIQREGLVHLDKKKRICKFTSHNGKWKLEGDHSHSARMKRRWSMRVRVVVGLPSLMNFLVEKTKDIIEPMLASAAFREFSESEDGGLPEHAYYNHFHKNVAPNMAKIEEYSIEERVRVMFALAGRVSADFRAQTKGLVELDDGKRISKFTSTDGKLKLEGDHSDSARRKRSAAFYRKTDHHCRSANDSKPRRKNGRQSDSEFSDKSGSDEDDVESAISYGNSPKRARCEKSADPEMHVSSGSDDDEVEDVGGMDEEPVLLPIDSDESHIGHLQNGEEMMVEDDNQPIPEDPQYSANSSHQGRRMSGRIQEKLSASIAQETTDAAVAIPHVPILNPPFESDDEEVKYIGAVKGQPKPGPIESVFDQINNRDHFQGNQEYRNQSISERKVDVPLFVEHQQISLSAENRATSAEWKSIFLHDFLKQLTQFICFFECSELAEIKRNIKEVMADEGKISSFQKLEIIDIRTVLGAFFFGVSRKIKSTGSNNSTMKAKDFLVTFKYFLLGLDFSELLELSTVFKRKLTSSHVQRHPPSSPKPTLHNF | not soluble
12 | GPLGSHENCQSPSMKRSRCTNYSFRTLTLSTAEYTKVVEFLAREAKVPRYTWVPTQVVSHILPTEGLERFLTAIKAGHDSVLFNANGIYTMGDMIREFEKHNDIFERIGIDSSKLSKYYEAFLSFYRIQEAMKLPK | soluble
13 | GPGSMSTTAYALVAEEKQYPLQVGKNVVGRSSVPVEGVSFINLESPLAAISRMQAFVDIGANGDAWISDCNSTNGTFLSISPGPGIRLEANRYYQLSPGCRIVFGDVVCTFETLSEAPPTPEHPAHLLTSHSRPTRKTESLGVVDALADSTATTTPARHPSKQLNAHRSNVPYLDESGSLLREPAASRETVATTKKTPRRERREPTAPSPPLKRAKVESAAPSSFLKVKTAATAKATTPARALAARPHVCLTGMDSDERVAVTKRVRELKGRVVDDITKANLLVVATPPVRTPKFIAAVARGIPVVSVDYICNRRAELDDARHHIVGLKTDQHTYTAAELKKVIYRKDASPLLQGVSFNIAALSSKTKSVAAEIISSSGGEVVSTKKGGGTALTDAQLDKLYDSILRGKVPDVL | not soluble
14 | IYGYVEKATLIDQNLTLSAKLDTGAKSASLHAVNITEIEKKGIPYLRFTVPTKTGDYSFEGEYVGKVKIKVRSSETNPGLLRTTPIKRPVVLLNIKLGDKVRTIKVNLTNRKRFLYPLLLGRDAIIDFNGAVDPALTFTTKSK | soluble
15 | MSDNNQALKDAGLKVTLPRLKILEVLQQPECQHISAEELYKKLIDLGEEIGLATVYRVLNQFDDAGIVTRHHFEGGKSVFELSTQHHHDHLVCLDCGEVIEFSDDVIEQRQKEIAAKYNVQLTNHSLYLYGKCGSDGSCKDNPNAHKPKK | soluble
16 | MNEIYDREQMIKLLDLAKNTEMELPINLAIGLGLRISEVLGLTWDNIDFEENTITVNKITSRINGSVILKEPKTESSVRKISSPKELMSLLKEYKIKQNKNLLKSSIRNNNNLLFFNKKCEPIAEDVMSKKFKRFLEKNELPHIRFHDLRHSHVTLLINSKVPIKVISERVGHSNISTTLSVYSHVLKEMDKEASDKISESLFNANLEHHHHHH | not soluble
17 | MENKYTHGVLFYHEHSGLKNINQGIGEVTTALSSICKHLSIQLSENEGDIIKYCQEIKTKNYAKDVDILFILGGDGTVNELINGVMSHDLQLPIGILPGGTFNDFTKTLNIAPNHKQASEQMISAQVGTYDVIKINNQYALNFVGLGLIVQNAENVQDGSKDIFGKLSYIGSTVKTLLNPTQFNYQLSIDDKTYSGETTMILTANGPFIGGSRIPLTDLSPQDGELNTFIFNEQSFSILNDIFKKRDSMNWNEITQGIEHIPGKKISLTTDPAMKVDIDGEISLETPIDIEVIPNAIQLLTVNDL | soluble
18 | GPGSMPSLNFFLADESRLESSRDDSTAEVAHFTPSQHALRRILISTAMANKSLEYVQGMNEYVAHLLYAFAKGKASNLTASVEADTFFCFQTLLSYLGDDFCRSFDFDAACGLTSTMRLFDNVLRFFDPSLFQHLEYLGINAEHYALRWIMLLFTQEFNIADGLRVWDFLLSFGDEIRNAAFFVAAAMCHHLRSSILSGEAMSDVLPLLQEYPAGDVNLFLRIALKWIVKFDFDLLHELKPLSPEGVQALRCSRGLEGGMNFVQVMQSWVPSIF | not soluble
19 | MSLKVAVVGLGDISHVHIHAIQNSTKAQLVAVCDENEKLSQQVPHVNYYNDLQTMIDSETLDCVHICLPHYLHVSATTTCVENGINVLQEKPLAVNAKEGLELVKLQRKYPNIKIGICFQNRYNATFQALQEIVESKTYGEVIGVKGLVTWFRPESYYTDKPWRGQMATAGGGVLINQSIHTLDLIQLLCGKIASIKGTVSQLLDYDIEVEDTASAHIKFENKANGMFFATNANFGNSNVELQIIFENEKFTIKDNILTRFNEAGEKIKIAEDEKMTGNKTYYGPSHGKLINAFYDCINNDSNNYVHPKDALTSIAMIDAIQKSSESLKTVQFDSEGHHHHHH | soluble
20 | MSLRNDPTGVTHAIRLDNDIFKLNVYIKNIDTSKSNLRYTEGYLQSLTNILTRAKEIAIQGASGTYESDDKKMISKEVNALLEDVVAIANAKGPDGYSIFSGTKIDSEAFKVTRENKISKTSKDGAGPQIIKVEYNGNQAEKKTEVYNDIHMSNNYPGNVIFFLQNQNIISSINTNGFAVKENTKIYIDNIEIGLTAGDTALDIVAKINESSAPVEASIDPVLNSLSIKTTTPHQIWITEEKESNVLQTLGILTKNNDTKLPPYNLSSSTEVRSRSIFDALIELRDTLYNNKEELVGSRSLAEIDESLKRLLISVADLGAKENRLDRSYERISKEAADMKEDMIQYTDLDVTKAITNLNMASLAYQVSIGISAKIMQTTLLDFIKEGHHHHHH | soluble
